For experiment [1], the target named is T1, recombinant human PACAP/VIP R-2 receptor (human).
T1 chain: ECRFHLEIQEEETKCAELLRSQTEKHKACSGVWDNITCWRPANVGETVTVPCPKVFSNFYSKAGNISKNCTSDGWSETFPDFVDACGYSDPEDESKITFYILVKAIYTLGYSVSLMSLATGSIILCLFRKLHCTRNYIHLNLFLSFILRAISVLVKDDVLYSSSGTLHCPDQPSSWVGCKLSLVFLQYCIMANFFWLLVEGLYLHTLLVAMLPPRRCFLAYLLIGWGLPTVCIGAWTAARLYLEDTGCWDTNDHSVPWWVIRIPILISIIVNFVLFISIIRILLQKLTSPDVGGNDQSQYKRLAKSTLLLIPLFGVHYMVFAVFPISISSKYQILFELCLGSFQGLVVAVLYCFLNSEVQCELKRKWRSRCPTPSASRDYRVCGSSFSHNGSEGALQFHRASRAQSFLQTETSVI
The experiment can be described thus: competitive displacement of 125I-VIP on intact CHL cells expressing the receptor. Background: Loss of bound radioactivity is the signal in a displacement assay; it reports binding, not function.
Procedure for binding result: (§1) Each peptide concentration prepared in Hank's balanced salt solution containing 20 mM HEPES, pH 7.4, 0.5% BSA and 0.1 mM phenylmethylsulfonyl-fluoride (PMSF) was added in triplicates to intact cells. Following the incubation, the cells were washed two times with ice-cold PBS, lysed with 1N NaOH, and radioactivity measured in gamma counter.

The target of experiment [2] is T1, recombinant human PACAP/VIP R-2 receptor. The experiment can be described thus: competitive displacement of 125I-PACAP-27 (44 pM) on intact CHL cells expressing the receptor.
Procedure: as §1
Experiment [3] has the same target. The experiment can be described thus: competitive displacement of 125I-VIP (44 pM) on intact CHL cells expressing the receptor; complete displacement not obtainable.
Procedure: as §1
(§2) To further confirm the identity of the receptor, the cDNA was expressed in a chinese hamster lung (CHL) cell line.
Experiment [4] has the same target. Kind of experiment: competitive displacement of 125I-VIP on intact CHL cells expressing the receptor; complete displacement not obtainable.
Procedure: as §1
For experiment [5] the target is unchanged. Kind of experiment: competitive displacement of 125I-VIP (44 pM) on intact CHL cells expressing the receptor.
Procedure: as §1, §2

Where no end group is shown, it is not given here.

The IC50 is the concentration that gives 50% inhibition.

On to secretin (ligand), for which, in experiment [1], the concentration at which 125I-VIP binding was displaced was 3.8 µM.

On to HSDAVFTDNYTRLRKQMAVKKYLNSILN (ligand) [vasoactive intestinal polypeptide (VIP)], for which the values for the IC50 in experiment [2] and in experiment [3] were approximately 9 nM and approximately 5.8 nM, respectively.

With HSDGIFTDSYSRYRKQMAVKKYLAAVL (ligand, ends and bridges not checked) [PACAP-27 (pituitary adenylate cyclase activating polypeptide, 27-amino acid peptide)], the IC50 in experiment [4] was approximately 37 nM.

With HADGSFSDEMNTILDNLAARDFINWLIQTKITD (ligand) [glucagon-like peptide-II (GLP-II)], in experiment [1], the binding result is recorded as “no binding”.

On to HAEGTFTSDVSSYLEGQAAKEFIAWLVKGR (ligand) [glucagon-like peptide-I (GLP-1)], for which the binding result in experiment [1] is recorded as “no binding”.

In the case of HSDGIFTDSYSRYRKQMAVKKYLAAVLGKRYKQRVKNK (ligand, ends and bridges not checked) [PACAP-38 (pituitary adenylate cyclase activating polypeptide, 38-amino acid peptide)], the IC50 in experiment [5] was determined as 1.8 nM; in experiment [2] it was 4.1 nM.

The record behind these values is patent US5831051, “Receptor for peptide hormones involved in energy homeostasis, and method and compositions for use thereof” (The Rockefeller University, dated 1998).
